Measurements reported in patent US20260209362A1 (VIB VZW, published 2026).

T1: biotinylated recombinant human IL-12Rβ2 (human, UniProt Q99665 24-622, random biotinylated)
T1 construct: Recombinant protein produced in-house, biotinylated; also called hIL-12RB2; human IL-12RB2
T1 sequence: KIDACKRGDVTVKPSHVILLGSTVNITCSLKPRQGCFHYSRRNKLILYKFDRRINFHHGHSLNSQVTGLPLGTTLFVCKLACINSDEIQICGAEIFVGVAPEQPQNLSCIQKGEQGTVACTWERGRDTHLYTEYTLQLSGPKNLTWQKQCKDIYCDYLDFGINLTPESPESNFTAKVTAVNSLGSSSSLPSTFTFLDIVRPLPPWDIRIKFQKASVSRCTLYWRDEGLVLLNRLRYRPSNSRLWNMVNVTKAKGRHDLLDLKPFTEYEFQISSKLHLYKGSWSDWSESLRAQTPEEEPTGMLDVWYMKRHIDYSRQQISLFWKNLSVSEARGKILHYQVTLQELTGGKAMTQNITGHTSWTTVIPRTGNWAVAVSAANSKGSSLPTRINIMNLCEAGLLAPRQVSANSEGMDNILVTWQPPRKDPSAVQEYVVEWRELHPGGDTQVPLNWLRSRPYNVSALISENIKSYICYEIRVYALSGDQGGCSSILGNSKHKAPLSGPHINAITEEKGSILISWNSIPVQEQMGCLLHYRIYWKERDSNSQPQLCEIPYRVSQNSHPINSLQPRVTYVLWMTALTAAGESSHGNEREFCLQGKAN

T2: biotinylated recombinant mouse IL-12Rβ2 (mouse, UniProt P97378 24-637, random biotinylated)
T2 construct: Recombinant protein produced in-house, biotinylated; also called mIL-12RB2; mouse IL-12RB2
T2 sequence: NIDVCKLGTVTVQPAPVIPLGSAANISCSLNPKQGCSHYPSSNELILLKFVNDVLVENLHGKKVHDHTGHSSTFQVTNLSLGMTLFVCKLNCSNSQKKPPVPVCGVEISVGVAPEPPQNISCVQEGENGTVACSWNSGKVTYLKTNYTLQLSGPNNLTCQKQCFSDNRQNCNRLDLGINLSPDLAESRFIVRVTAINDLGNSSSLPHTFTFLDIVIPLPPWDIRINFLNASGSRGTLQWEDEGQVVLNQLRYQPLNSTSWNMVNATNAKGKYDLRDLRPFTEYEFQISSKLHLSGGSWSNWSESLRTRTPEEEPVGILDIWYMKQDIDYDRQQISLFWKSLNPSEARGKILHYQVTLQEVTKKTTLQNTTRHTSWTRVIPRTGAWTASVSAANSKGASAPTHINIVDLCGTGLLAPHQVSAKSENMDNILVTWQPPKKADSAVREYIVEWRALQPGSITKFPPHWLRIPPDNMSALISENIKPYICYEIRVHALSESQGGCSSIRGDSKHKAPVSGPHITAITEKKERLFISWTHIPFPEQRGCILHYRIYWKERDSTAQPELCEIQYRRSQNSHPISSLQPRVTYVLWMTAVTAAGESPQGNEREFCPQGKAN


How the values were obtained:
[1] = target: T1, biotinylated recombinant human IL-12Rβ2; experiment: ELISA, periplasmic extract on biotinylated hIL-12Rβ2, signal over control wells
[2] = target: T2, biotinylated recombinant mouse IL-12Rβ2; experiment: ELISA, periplasmic extract on biotinylated mIL-12Rβ2, signal over control wells

Binder	ELISA binding hIL-12RB2/control [1]	ELISA binding mIL-12RB2/control [2]
anti-IL-12Rβ2 VHH clone 20488 (VHH, not shown: small tags and cut ends, tested as periplasmic extract; also called 2CAM48) VHH: QVQLQESGGGLMQAGDSLRLSCAASGRTFSSYGMGWFRQAPGKEREFVAAISRGARITDYADSVKGRFTISRDNAKNTAYLQMNSLNPEDTAVYFCAAAYTYSGSHYVTARSSDYHSWGQGTQVTVSS	0.973 ratio	12.9 ratio
anti-IL-12Rβ2 VHH clone 20491 (VHH, not shown: small tags and cut ends, tested as periplasmic extract; also called 2CAM57) VHH: QVQLQESGGGLVQAGGSLRLSCAASGRTFSSYGMGWFRQAPGKERDFVAAISRDARYTDYADSVKGRFTISKDNAKNTAYLQMNSLNPEDTAVYFCAAAYTYSGSHYVTARSGDYNYWGQGTQVTVSS	1 ratio	14.4 ratio
anti-IL-12Rβ2 VHH clone 20499 (VHH, not shown: small tags and cut ends, tested as periplasmic extract; also called 2CAM75) VHH: QVQLQESGGGLVQAGGSLRLSCAASGRTFSSYGMGWFRQAPGKEREFVAAISRDASITDYADSVKGRFTISRDNAKNTAYLEMNSLNPEDTAVYFCAAAYTYSGSHYVTARSSDYHSWGQGTQVTVSS	0.985 ratio	10.4 ratio
anti-IL-12Rβ2 VHH clone 20504 (VHH, not shown: small tags and cut ends, tested as periplasmic extract; also called 3CAM3) VHH: QVQLQESGGGLVQAGGSLKLSCAATGFILDYVGVGWFRQAPGKERDFVAAISRDARITDYADSVKGRFTISRDNAKNTAYLQMNSLNPEDTAVYFCAAAYTYSGSHYVTARSSDYHTWGQGTQVTVSS	1.27 ratio	14.5 ratio
anti-IL-12Rβ2 VHH clone 20505 (VHH, not shown: small tags and cut ends, tested as periplasmic extract; also called 3CAM4) VHH: QVQLQESGGGSVQAGGSLRLSCAASGRTFSSYGMGWFRQAPGKEREFVAAISRDARITDYADSVKGRFTISRDNAKNTAYLEMNSLNPEDTAVYFCAAAYTYSGSHYVTARSSDYHSWGQGTQVTVSS	1.07 ratio	20.2 ratio
anti-IL-12Rβ2 VHH clone 20497 (VHH, not shown: small tags and cut ends, tested as periplasmic extract; also called 2CAM72) VHH: QVQLQESGGGLVQAGDSLRLSCAASGRTFSSYGMGWFRQAPGKEREFVAAISRGARITDYADSVKGRFTISRDNAKNTAYLQMNSLNPEDTAVYFCAAAYTYSGSHYVTARSSDYHSWGQGTQVTVSS	0.932 ratio	13.4 ratio
anti-IL-12Rβ2 VHH clone 20495 (VHH, not shown: small tags and cut ends, tested as periplasmic extract; also called 2CAM69) VHH: QVQLQESGGGLVQAGGSLRLSCAASGRTFSMHGMGWFRQAPGKEREFVAAISRDARITDYADSVKGRFTISRDNAKNTAYLQMNSLNPEDTAVYFCAAAYTYSGSHYVTARSSDYNYWGQGTQVTVSS	0.924 ratio	15.8 ratio
anti-IL-12Rβ2 VHH clone 20509 (VHH, not shown: small tags and cut ends, tested as periplasmic extract; also called 3CAM30) VHH: QVQLQESGGGLVQAGGSLRLSCAAAGRTFSSYGMGWFRQAPGKERDFVAAISRDARITDYADSVKGRFTISRDNAKNTAYLQMNSLNPEDTAVYFCAAAYTYSGSHYVTARSSDYHTWGQGTQDTVSS	1.31 ratio	10 ratio
anti-IL-12Rβ2 VHH clone 20500 (VHH, not shown: small tags and cut ends, tested as periplasmic extract; also called 2CAM81) VHH: QVQLQESGGGLVQPGGSLRLSCAASGFTFSSYGMGWFRQAPGKEREFVAAISRDARITDYADSVKGRFTISRDNAKNTAYLEMNSLNPEDTAVYFCAAAYTYSGSHYVTARSSDYHSWGQGTQVTVSS	0.982 ratio	24 ratio
anti-IL-12Rβ2 VHH clone 20511 (VHH, not shown: small tags and cut ends, tested as periplasmic extract; also called 3CAM36) VHH: QVQLQESGGGLVQAGESLTLSCTASGRTFSSYGMGWFRQAPGKERDFVAAISRDARYTDYADSVKGRFTISKDNAKNTAYLQMNSLNPEDTAVYFCAAAYTYSGSHYVTARSGDYNYWGQGTQVTVSS	1.2 ratio	25.6 ratio

More lines, now with the values ahead:

ELISA binding hIL-12RB2/control [1]	ELISA binding mIL-12RB2/control [2]	Binder
0.915 ratio	5.66 ratio	anti-IL-12Rβ2 VHH clone 20541 (VHH, not shown: small tags and cut ends, tested as periplasmic extract; also called 3CAMS9) VHH: QVQLQESGGGLVQAGGSLRLSCAASGRTFSSYGMGWFRQAPGKEREFVAAISRDARITDYADSVKGRFTISRDNAKNTAYLEMNSLNPEDTAVYSCAAAYTYSGSHYVTARSSDYHSWGQGTQVTVSS
0.919 ratio	9.31 ratio	anti-IL-12Rβ2 VHH clone 20544 (VHH, not shown: small tags and cut ends, tested as periplasmic extract; also called 3CAMS19) VHH: QVQLQESGGGLVQAGGPLRLSCAASGRTFSSYGMGWFRQAPGKERDFVAAISRDARITDYADSVKGRFTISRDNVKNTVYLQMNSLNPEDTAVYFCAAAYTYSGSHYVTARSSDYHSWGQGTQVTVSS
1.03 ratio	17.8 ratio	anti-IL-12Rβ2 VHH clone 20514 (VHH, not shown: small tags and cut ends, tested as periplasmic extract; also called 3CAM70) VHH: QVQLQESGGGLVQAGDSLRLSCIASGPSFSSYGMGWFRQAPGKEREFVAAISRDARITDYADSVKGRFTISRDNAKNTAYLEMNSLNPEDTAVYFCAAAYTYSGSHYVTARSSDYHSWGQGTQVTVSS
0.842 ratio	3.38 ratio	anti-IL-12Rβ2 VHH clone 20536 (VHH, not shown: small tags and cut ends, tested as periplasmic extract; also called 2CAMS53) VHH: QVQLQESGGGMVQAGGSLRLSCAASGRTFSSYGMGWFRQAPGKEREFVAAISRGARNTDYADSVKGRFTISRDNAKNTAYLQMNSLNPEDTAVYFCAAAYTYSGSHYVTARSSDYPYWGQGTQVTVSS
1.02 ratio	5.12 ratio	anti-IL-12Rβ2 VHH clone 20547 (VHH, not shown: small tags and cut ends, tested as periplasmic extract; also called 3CAMS47) VHH: QVQLQESGGGLVQAGGSLRLSCAASGRTFSSYGMGWFRQAPGKERDFVAAISRGARNADYADSVKGRFTISRDNAKNTAYLQMNSLNPEDTAVYFCAAAYTYSGSHYVTARSSDYAYWGQGTQVTVSS
1.07 ratio	4.78 ratio	anti-IL-12Rβ2 VHH clone 20538 (VHH, not shown: small tags and cut ends, tested as periplasmic extract; also called 2CAMS83) VHH: QVQLQESGGGLVQPGDSLRLSCAASGRTFSSYGMGWFRQAPGKEREFVAAISRGARNTDYADSVKGRFTISRDNAKNTAYLQMNSLNPEDTAVYFCAAAYTYSGSHYVTARSSDYPYWGQGTQVTVSS
1.23 ratio	21.8 ratio	anti-IL-12Rβ2 VHH clone 20516 (VHH, not shown: small tags and cut ends, tested as periplasmic extract; also called 3CAM85) VHH: QVQLQESGGGLVQAGGSLRLSCAASGRTFSSYGMSWFRQAPGKERDFVAAISRDARITDYADSVKGRFTISRDNVKNTVYLQMNSLNPEDTAVYFCAAAYTYSGSHYVTARSSDYHSWGQGTQVTVSS
1.03 ratio	4.89 ratio	anti-IL-12Rβ2 VHH clone 20539 (VHH, not shown: small tags and cut ends, tested as periplasmic extract; also called 2CAMS87) VHH: QVQLQESGGGLVQAGGSLRLSCAASGRTFSSYGMGWFRQAPGKEREFVAAISRGARNTDYADSVKGRFTISRDNAKNTAFLQMNSLNPEDTAVYFCAAAYTYSGSHYVTARSSDYHTWGQGTQVTVSS
0.951 ratio	8.98 ratio	anti-IL-12Rβ2 VHH clone 20548 (VHH, not shown: small tags and cut ends, tested as periplasmic extract; also called 3CAMS50) VHH: QVQLQESGGGLVQAGGSLRLSCADSGRTFSSYGMGWFRQAPGKEREFVAAISRGARITDYADSVKGRFTISRDNAKNTAYLQMNSLNPEDTAVYFCAAAYTYSGSHYVTARSSDYHSWGQGTQVTVSS
0.834 ratio	8.57 ratio	anti-IL-12Rβ2 VHH clone 20540 (VHH, not shown: small tags and cut ends, tested as periplasmic extract; also called 3CAMS5) VHH: QVQLQESGGGLVQAGDSLRISCAASGRTFSSYGMGWFRQAPGKERDFVAAISRDARYTDYADSVKGRFTISKDNAKNTAYLQMNSLNPEDTAVYFCAAAYTYSGSHYVTARSGDYNYWGQGTQVTVSS
